Data reported in patent US9144594B2, “Cathepsin L mediated diseases and associated methods and products” (University of Miami, priority 2005, dated 2015).

What was measured:
[1] = system: LPS induced mouse proteinuria model; assay: LPS induced mouse proteinuria model, protein in urine (prevention and reversal by dynamin gene delivery); assay type: in vivo; details: Table 5 Reversal, 2xLPS
Procedure: Next, it was examined whether gene transfer of dynR725A and dynL356Q, G358V was able to protect from LPS induced changes of podocyte FP and thus proteinuria (FIGS. 6A-B); (Table 2B). […] Whereas the application of wildtype dynamin was unable to protect from LPS induced podocyte FP effacement (data not shown) and proteinuria (0.63 mg/ml after 24 hours, p<0.05 and 1.18 mg/ml after 48 hours, p<0.04); table 2B, the co-administration of R725A together with LPS completely abolished the development of proteinuria after 24 hours (0.20 mg/ml). Podocyte FPs remained normal at this timepoint (FIG. 6B). The decline of R725A expression in podocytes was then associated with the development of proteinuria (1.25 mg/ml, 48 h). At this time point, there was noticeable podocyte FP effacement. The application of the cathepsin L resistant dynamin mutant L356Q, G358V together with LPS conferred a partial protection from proteinuria (0.47 mg/ml, P<0.05). This protection was associated with normal appearing podocyte FP (FIG. 6C). Although this protection was not as strong as the one provided by dynR725A, it was prolonged and was still present even after the second dose of LPS ([…], P<0.04). This observation argues that lower expression levels of dynL356Q, G358V are required to protect from LPS induced FP effacement but the presence of dynR725A has the most powerful protection.
Another set of experiments was carried out to study whether dynR725A and dynL356Q, G358V are also useful once there is already established podocyte damage and proteinuria (reversal experiments), (FIGS. 6C, D); (Table 2C). First LPS was injected in mice at 0 and 24 hours and the course of urinary protein loss was documented. On the peak phase of proteinuria at 48 hours after the first LPS injection, either delivery solution (control), dynR725A or dynL356Q, G358V dynamin mutants were transferred and the morphology of podocyte FP was analyzed and the degree of proteinuria was determined 10 hours later when there was strong expression of the transferred gene in podocytes. […] A dramatic reformation of podocyte FPs was also observed (FIG. 6C). The same observation was true for L356Q, G358V (FIG. 6D) which was able to reduce proteinuria from 1.20 mg/ml to 0.71 mg/ml). From the in vitro data it was determined that R725A starts to self assemble into higher order structures in the LPS setting which render dynamin assembly domain protected from cathepsin L cleavage. […] In addition, dominant activating dynR725A proves useful because despite causing podocyte damage in wildtype mice, it can resist cathepsin L cleavage by self assembly in the LPS setting and have strong activity by impairment in its GTP hydrolysis.
If dynamin is a target of CatL, then dynL356Q and dynR725A, which are resistant to CatL cleavage, might protect kidneys from LPS. In control mice, two injections of LPS led to FP effacement (FIG. 21C) and a large increase in proteinuria (FIG. 21E, Con).
Next it was examined whether dynL356Q and dynR725A can reverse already established proteinuria. LPS was injected into mice at 0 and 24 hours. At the peak of proteinuria at 48 hours, mice were injected with dynWT, dynL356Q, or dynR725A, and the degree of proteinuria was analyzed 12 hours post injection. […] The rescue could be achieved with both podocin and CMV-driven protein expression.
All animal studies were approved by the MGH Subcommittee for Research Animal Care. C57BL6 mice were obtained from Jackson Laboratory (Bar Harbor, Me.). CatL−/− mice are in a pure C57BL6 background (Nakagawa et al., Science 280, 450-453 (1998)). LPS induced mouse proteinuria model was utilized as previously described (Reiser et al., J Clin Invest 113, 1390-1397 (2004)). Rat PAN nephrosis model was induced by a single intravenous injection of PAN (180 mg/kg body wt; Sigma-Aldrich, St. Louis, Mo.) (Kim et al., Am J Physiol Renal Physiol 286, F922-935 (2004)). […]

mice = assay: Protein in urine after in vivo gene delivery of dynamin mutants into healthy mice (Bradford); design: species or system mouse; details: Table 5 Basic Phenotype, podocin-driven vectors
Procedure: Next, the level of urinary protein loss following gene delivery of dynamin mutants was examined (Table 2). […] The expression of K44A was associated with severe proteinuria (1.18 mg/ml) at peak gene expression time of 10 hours post injection. The reduction in gene expression was paralleled by a reduction in proteinuria (0.77 mg/ml). Gene transfer of dynR725A caused an increase in proteinuria (0.58 mg/ml). Although this was not a significant increase, it is probable that it is a consequence of the partial podocyte FP effacement seen after gene transfer of dynR725A, and due to increase in the stress fibers formation observed in cultured podocytes.
To explore whether functional dynamin is required for the maintenance of FP morphology in healthy kidneys, it was examined whether expression of dominant negative dynK44A disrupts podocyte function. […] In contrast, podocin driven expression of dynK44A, the dynamin mutant that cannot bind GTP, caused FP effacement (FIG. 21B) and proteinuria (1.1±0.26 mg/ml) at the peak of gene expression […] after gene delivery (FIGS. 21D and 25C). […] In other words, tight regulation of the life-time of the GTP-bound form of dynamin appears to be required for normal FP morphology and ultrafiltration.
CatL plasmids encoding short and long CatL (Goulet et al., Biol Chem 387, 1285-1293 (2004)), Dyn1 plasmids (pcDNA-driven) or p2.5 Podocin-driven (Moeller et al., Genesis 35, 39-42 (2003)) were introduced into mice (n>10, each construct) using the TransIT in vivo gene delivery system according to the manufacturer's instruction (Mirus Bio Corporation, Madison, Wis.). 10 and 24 h after gene delivery, proteinuria was assessed by Multistix 8 SG strips (Bayer Corporation, Elkhart, Ind.), and Bradford protein assay (Sigma, Saint Louis, Mo.). From the same urines the protein creatinine ratio was determined with Albuwell M and Creatinine Companion protein creatinine ELISA kits (Exocell Inc., Philadelphia, Pa.).

| Molecule | Protein in the urine ([1]; t = 0) [mg/mL] | Protein in the urine ([1]; t = 48 h) [mg/mL] | Protein in the urine ([1]; t = 58 h) | Protein in the urine (mice; t = 0) [mg/mL] | Protein in the urine (mice; t = 14 h) | Protein in the urine (mice; t = 24 h) |
| --- | --- | --- | --- | --- | --- | --- |
| R725A (podo): podocin promoter-driven dynR725A vector, gene delivery (protein, UniProt Q05193 1-864, looked up, variant R725A, podocin promoter vector, podocin promoter-driven dynR725A vector, gene delivery) Dynamin-1: MGNRGMEDLIPLVNRLQDAFSAIGQNADLDLPQIAVVGGQSAGKSSVLENFVGRDFLPRGSGIVTRRPLVLQLVNATTEYAEFLHCKGKKFTDFEEVRLEIEAETDRVTGTNKGISPVPINLRVYSPHVLNLTLVDLPGMTKVPVGDQPPDIEFQIRDMLMQFVTKENCLILAVSPANSDLANSDALKVAKEVDPQGQRTIGVITKLDLMDEGTDARDVLENKLLPLRRGYIGVVNRSQKDIDGKKDITAALAAERKFFLSHPSYRHLADRMGTPYLQKVLNQQLTNHIRDTLPGLRNKLQSQLLSIEKEVEEYKNFRPDDPARKTKALLQMVQQFAVDFEKRIEGSGDQIDTYELSGGARINRIFHERFPFELVKMEFDEKELRREISYAIKNIHGIRTGLFTPDMAFETIVKKQVKKIREPCLKCVDMVISELISTVRQCTKKLQQYPRLREEMERIVTTHIREREGRTKEQVMLLIDIELAYMNTNHEDFIGFANAQQRSNQMNKKKTSGNQDEILVIRKGWLTINNIGIMKGGSKEYWFVLTAENLSWYKDDEEKEKKYMLSVDNLKLRDVEKGFMSSKHIFALFNTEQRNVYKDYRQLELACETQEEVDSWKASFLRAGVYPERVGDKEKASETEENGSDSFMHSMDPQLERQVETIRNLVDSYMAIVNKTVRDLMPKTIMHLMINNTKEFIFSELLANLYSCGDQNTLMEESAEQAQRADEMLRMYHALKEALSIIGDINTTTVSTPMPPPVDDSWLQVQSVPAGRRSPTSSPTPQRRAPAVPPARPGSRGPAPGPPPAGSALGGAPPVPSRPGASPDPFGPPPQVPSRPNRAPPGVPSRSGQASPSRPESPRPPFDL | 0.23 ± 0.07 | 1.26 ± 0.34 | 0.49 ± 0.23 (1.6 × 10^−4) mg/ml | 0.29 ± 0.10 | 0.79 ± 0.22 (4.4 × 10^−5) mg/ml | 0.45 ± 0.18 (3.6 × 10^−2) mg/ml |
| L356Q (podo): podocin promoter-driven dynL356Q vector, gene delivery (protein, UniProt Q05193 1-864, looked up, variant L356Q, podocin promoter vector, podocin promoter-driven dynL356Q vector, gene delivery) Dynamin-1: MGNRGMEDLIPLVNRLQDAFSAIGQNADLDLPQIAVVGGQSAGKSSVLENFVGRDFLPRGSGIVTRRPLVLQLVNATTEYAEFLHCKGKKFTDFEEVRLEIEAETDRVTGTNKGISPVPINLRVYSPHVLNLTLVDLPGMTKVPVGDQPPDIEFQIRDMLMQFVTKENCLILAVSPANSDLANSDALKVAKEVDPQGQRTIGVITKLDLMDEGTDARDVLENKLLPLRRGYIGVVNRSQKDIDGKKDITAALAAERKFFLSHPSYRHLADRMGTPYLQKVLNQQLTNHIRDTLPGLRNKLQSQLLSIEKEVEEYKNFRPDDPARKTKALLQMVQQFAVDFEKRIEGSGDQIDTYEQSGGARINRIFHERFPFELVKMEFDEKELRREISYAIKNIHGIRTGLFTPDMAFETIVKKQVKKIREPCLKCVDMVISELISTVRQCTKKLQQYPRLREEMERIVTTHIREREGRTKEQVMLLIDIELAYMNTNHEDFIGFANAQQRSNQMNKKKTSGNQDEILVIRKGWLTINNIGIMKGGSKEYWFVLTAENLSWYKDDEEKEKKYMLSVDNLKLRDVEKGFMSSKHIFALFNTEQRNVYKDYRQLELACETQEEVDSWKASFLRAGVYPERVGDKEKASETEENGSDSFMHSMDPQLERQVETIRNLVDSYMAIVNKTVRDLMPKTIMHLMINNTKEFIFSELLANLYSCGDQNTLMEESAEQAQRRDEMLRMYHALKEALSIIGDINTTTVSTPMPPPVDDSWLQVQSVPAGRRSPTSSPTPQRRAPAVPPARPGSRGPAPGPPPAGSALGGAPPVPSRPGASPDPFGPPPQVPSRPNRAPPGVPSRSGQASPSRPESPRPPFDL | 0.29 ± 0.05 | 1.36 ± 0.49 | 0.73 ± 0.29 (6.9 × 10^−3) mg/ml | 0.24 ± 0.05 | 0.45 ± 0.12 (2.5 × 10^−3) mg/ml | 0.35 ± 0.018 mg/mL |
